B1: Smaug 70-281 (domain or fragment, Drosophila, UniProt Q23972 70-281, looked up)
chain: SNALFCEQVTTVTNLFEKWNDCERTVVMYALLKRLRYPSLKFLQYSIDSNLTQNLGTSQTNLSSVVIDINANNPVYLQNLLNAYKTFQPCDLLDAMSSSSSDKDSMPCYGSDFQITTSAQCDERKLYARKEDILHEVLNMLPLLKPGNEEAKLIYLTLIPVAVKDTMQQIVPTELVQQIFSYLLIHPAITSEDRRSLNIWLRHLEDHIQAAA
B2: Smoothened 970-1003 synthetic peptide (peptide, UniProt P91682 970-1003, looked up)
peptide: VPSYGEDELQQAMRLLNAASRQRTEAANEDFGGT
B4: Smaug 73-278Δ156-196 (Smaug part of the single-chain construct) (domain or fragment, Drosophila, UniProt Q23972 73-278, looked up)
chain: LFCEQVTTVTNLFEKWNDCERTVVMYALLKRLRYPSLKFLQYSIDSNLTQNLGTSQTNLSSVVIDINANNPVYLQNLLNAYKTARKEDILHEVLNMLPLLKPGNEEAKLIYLTLIPVAVKDTMQQIVPTELVQQIFSYLLIHPAITSEDRRSLNIWLRHLEDHIQ

In data set [1] the target is B2. The experiment in a line: ITC.
The target in the data set “Smaug 70-281” is B1. The experiment in a line: ITC.
Data set [2] addresses B4. Put plainly: crystal structure.
Data set [3] concerns the molecule itself. Put plainly: crystal structure.
Data set [4] concerns the molecule itself. Put plainly: crystal structure. The source holds these as a separate data set.

Data on five molecules can be found in paper doi:10.1101/2023.02.19.529116 (bioRxiv, 2023).

As a reminder, the stoichiometry N is a count of units in the complex or per binding partner. As for B1, the “stoichiometry N” value in data set [1] stood at 1.
By Kd is commonly meant the constant that tells how readily two partners part at equilibrium. High values mean lower affinity, low ones higher affinity. B2: binding with Smaug 70-281 was characterised by a dissociation constant (Kd) of 800 nM.
VPSYGEDELQQAMRLLNAASRQRTEAANEDFGGT (peptide, UniProt P91682 970-1003, looked up) [Smo 970-1003 (Smoothened part of the single-chain construct)]: in data set [2], the binding result is given as “binds”.

B3: His-Hs-SAMD4A 2-156 (domain or fragment, human, UniProt Q9UPU9 2-156, looked up)
chain: MFRDQVGVLAGWFKGWNECEQTVALLSLLKRVSQTQARFLQLCLEHSLADCAELHVLEREANSPGIINQWQQESKDKVISLLLTHLPLLKPGNLDAKVEYMKLLPKILAHSIEHNQHIEESRQLLSYALIHPATSLEDRSALAMWLNHLEDRTST
Consider B3, for which the “stoichiometry N” value in “crystal structure [3]” turned out to be 2.
As to B4, the binding result in “crystal structure [4]” is reported as “binds”.
